Laboratory results published in publication PMC3876041, “Screening of Peptide Ligands for Pyrroloquinoline Quinone Glucose Dehydrogenase Using Antagonistic Template-Based Biopanning” (International Journal of Molecular Sciences, 2013).

Key:
[1] = Kinetic parameters of GDH-B and mutant enzymes; format: biochemical
Protocol: (§1) GDH-B activity was measured using 0.06 mM 2,6-dichlorophenolindophenol (DCIP) and 0.6 mM phenazine methosulfate (PMS) following 30 min pre-incubation in 10 mM MOPS–NaOH buffer (pH 7.0) containing 1 μM PQQ and 1 mM CaCl2 at room temperature (25 °C). The enzyme activity was determined by measuring the decrease in absorbance of DCIP at 600 nm. For the inhibition assay, the residual activity of 0.7 nM GDH-B for 50 mM D-glucose was measured following 1 h incubation with various concentrations of each peptide. GDH-B activity in the absence of peptide was defined as 100%.

[2] = Substrate specificity of GDH-B mutants; format: biochemical; conditions: galactose 20 mM; activity against glucose = 100%
Protocol: Figure 3. Substrate specificity of wild-type GDH-B (W.T.), DEE-His, and HI against glucose, lactose, maltose, 3-O-methylglucose (3-O-m glucose), allose, galactose, or 2-deoxyglucose (2DG). Each substrate concentration was 20 mM. The enzymatic activity of each enzyme against glucose was set as 100%.
as §1

[3] = DCIP/PMS assay, 10 mM MOPS–NaOH pH 7.0, 1 μM PQQ, 1 mM CaCl2, 25 °C

B1: DEE-His: GDH-B mutant V453D-Q454E-K455E, 6-His tag fused to the C-terminal, antagonistic template (protein)
chain: DVPLTPSQFAKAKSENFDKKVILSNLNKPHALLWGPDNQIWLTERATGKILRVNPESGSVKTVFQVPEIVNDADGQNGLLGFAFHPDFKNNPYIYISGTFKNPKSTDKELPNQTIIRRYTYNKSTDTLEKPVDLLAGLPSSKDHQSGRLVIGPDQKIYYTIGDQGRNQLAYLFLPNQAQHTPTQQELNGKDYHTYMGKVLRLNLDGSIPKDNPSFNGVVSHIYTLGHRNPQGLAFTPNGKLLQSEQGPNSDDEINLIVKGGNYGWPNVAGYKDDSGYAYANYSAAANKSIKDLAQNGVKVAAGVPVTKESEWTGKNFVPPLKTLYTVQDTYNYNDPTCGEMTYICWPTVAPSSAYVYKGGKKAITGWENTLLVPSLKRGVIFRIKLDPTYSTTYDDAVPMFKSNNRYRDVIASPDGNVLYVLTDTAGNDEEDDGSVTNTLENPGSLIKFTYKAK
modifications: left off: His6, C-terminal, kept
notes: GDH-B mutant V453D-Q454E-K455E, 6-His tag fused to the C-terminal, antagonistic template
[1]; [3]
  Km: 91 mM
  Vmax: 28 U/mg protein
[1]; compared to the wild-type enzyme
  Km compared to wild-type enzyme (in words): increased Km value
[1]; refolded DEE-His, with PQQ
  GDH activity with PQQ (in words): showed GDH activity with PQQ
[2]
  relative activity toward galactose (in words): higher relative activity toward galactose
